The RNAGym collection of RNA variant scans (doi:10.1073/pnas.2313332121)

B1: TPR t1 (parent)
chain: GACCAAUCUGCCCUCAGAGCUCGAGAACAUCUUCGGAUGCAGAGGAGGCAGGCUUCGGUGGCGCGAUAGCGCCAACGUCCUCAACCUCCAAUGCAUCCCACCACAUGAUGAUGCCUGAAGAGCCUUGGUUUUUUG

Variants of: B1
Assay: polymerase ribozyme fitness, log enrichment relative to wild type (log ratio); higher = more active; in vitro selection for triplet polymerase activity
In short: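 In triplicate, a single round of in vitro selection was run on each mutant library, PCR-built and transcribed, covering one subunit of a heterodimeric triplet polymerase ribozyme. Frozen incubation at −7 °C followed annealing with a biotinylated primer, partner subunit and triplets, and extended constructs were then gel-excised, streptavidin-captured and taken through RT-PCR. Fitness is the logarithm of genotype enrichment over wild-type enrichment, from inverse-variance-weighted replicate averages of Illumina-sequenced inputs and outputs. […] only genotypes with ≥10 input reads and ≥1 read per output were kept.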

Variant | polymerase ribozyme fitness (log ratio)
GACCAAUCUGCCCUCAGAGCUCGAGAACAUCUUCGGAUGGAGAGGAGGCAGGCUUCGGUGGCGCGAUAGCGCCAACGUCCUCAACCUCCAAUGCAUCCCACCACAUGAUGAUGCCUUAAGAGCCUUGGUUUUUUG [C40G G117U] | -3.26
GACCAAUCUGCCCUCAGAGCUCGAGAACAUCUUCGGAUGGAGAGGAGGCAGGCUUCGGUGGCGCGAUAGCGCCAACGUCCUCAACCUCCAAUGCAUCCCACCACAUGAUGAUGCCUGAAGAGCCAUGGUUUUUUG [C40G U125A] | -1.17
GACCAAUCUGCCCUCAGAGCUCGAGAACAUCUUCGGAUGGAGAGGAGGCAGGCUUCGGUGGCGCGAUAGCGCCAACGUCCUCAACCUCCAAUGCAUCCCACCACAUGAUGAUGCCUGAAGAGCCUUGAUUUUUUG [C40G G128A] | -3.61
GACCAAUCUGCCCUCAGAGCUCGAGAACAUCUUCGGAUGGAGAGGAGGCAGGCUUCGGUGGCGCGAUAGCGCCAACGUCCUCAACCUCCAAUGCAUCCCACCACAUAAUGAUGCCUGAAGAGCCUUGGUUUUUUG [C40G G107A] | -6.63
GACCAAUCUGCCCUCAGAGCUCGAGAACAUCUUCGGAUGUAGUGGAGGCAGGCUUCGGUGGCGCGAUAGCGCCAACGUCCUCAACCUCCAAUGCAUCCCACCACAUGAUGAUGCCUGAAGAGCCUUGGUUUUUUG [C40U A43U] | -1.09
GACCAAUCUGCCCUCAGAGCUCGAGAACAUCUUCGGAUGUCGAGGAGUCAGGCUUUGCUGGCUCGAUAGCGCCAACGUCCUCAACCUCCAAUGCAUCCCACCACAUGAUGAUGCCUGAAGAGCCUUGGUUUUUUG [C40U A41C G48U C56U G58C G63U] | -3.13
GACCAAUCUGCCCUCAGAGCUCGAGAACAUCUUCGGAUGGAGAGGAGGCAGGCUUCGGUGGCGCGAUAGCGCCAACGACCUCAACCUCCAAUGCAUCCCACCACAUGAUGAUGCCUGAAGAGCCUUGGUUUUUUG [C40G U78A] | -0.582
GACCAAUCUGCCCUCAGAGCUCGAGAACAUCUUCGGAUGGAGAGGAGGCAGGCUUCGGUGGCGCGAUAGCGCCAACGUCCUCAACCUCCAAAGCAUCCCACCACAUGAAGAUGCCCGAAGAGCCUUGGUUUUUUG [C40G U92A U109A U116C] | -5.03
GACCAAUCUGCCCUCAGAGCUCGAGAACAUCUUCGGAUGUAGAGGGGGCAGGCUUCGGUGGCGUGAUAGCGCCAACGUCCUCACCCUCCAAUGCAUCCCACCACAUGAUGAUGCCUGAAGAGCCUUGGUUUUUUG [C40U A46G C64U A84C] | -1.65
GACCAAUCUGCCCUCAGAGCUCGAGAACAUCUUCGGAUGGAGAGGAGGCAGGCUUCUGUGGCCCGAUAGCGCCAACGUCCUCAACCUCCACUGCAUCCCACCACAUGAUGAUGCCUGAAGAGCCUUGGUUUUUUG [C40G G57U G63C A91C] | -3.66
GACCAAUCUGCCCUCAGAGCUCGAGAACAUCUUCGGAUGGAGAGGAGGCAGGCUUCGGUGGCGCGAUAGCGCCAACGUCCUCAACCUCCAAUGCAUCCCACCACAUGAUGAUGCCUGAAGAGCCUUGGUUUUUUU [C40G G135U] | -1.71
GACCAAUCUGCCCUCAGAGCUCGAGAACAUCUUCGGAUGUGGAAGAGGCAGGCUUCGGGUGCGCGAUAGCGCCAACGUCCUCAACCUCCAAUGCAUCCCACCACAUGAUGAAGCCUGAAGAGCCUUGGUUUUUUG [C40U A41G G44A U59G G60U U112A] | 0.462
GACCAAUCUGCCCUCAGAGCUCGAGAACAUCUUCGGAUGUAGAGGAGGCUGUCUUCGGUGGCGCGAUAGCGCCAACGUCCUCAACCACCAAUGCAUCCCACAACAAGAUGAUGCCUGGAGAGCCUUGGUUUUUUG [C40U A50U G52U U87A C102A U106A A118G] | -7.38
GACCAAUCUGCCCUCAGAGCUCGAGAACAUCUUCGGAUGGAGAGGAGGCAGGCUACGGUGGCUCGAUAGCGCCAACGUCCUCAACCUCCAAUGCAUCCCACCACAUGAUGAUGCCUGAAGAGCUUUGGUUUUUUG [C40G U55A G63U C124U] | 0.229
GACCAAUCUGCCCUCAGAGCUCGAGAACAUCUUCGGAUGGAGAGGAGGCAGGCUUCGGUGGCGCGAUAGCACCAACGGCCUCAACCUCCAAUGCAUCCCACCACAUGAUGAUGCCUGAAGAGCCUUGGUUUUUUG [C40G G71A U78G] | -2.94
GACCAAUCUGCCCUCAGAGCUCGAGAACAUCUUCGGAUGGAGAGGAGGCAGGCUUCGGUGGCGCGAUAGCUCCAACGUCCUCAACCUCCAAUGCAUCCCACCACUUGAUGAUGCCUGAAGAGCCUUGGUUUUUUG [C40G G71U A105U] | -3.41
GACCAAUCUGCCCUCAGAGCUCGAGAACAUCUUCGGAUGGAGAGGAGGCAGGCUUCGGUGGCUCGAUAGCGCCAACGUCCUCAACCUCCAAUGCAUCCCACCACAUGAUGAUGCCUGAAGAGCCUUGGUUUUUUG [C40G G63U] | -1.85
GACCAAUCUGCCCUCAGAGCUCGAGAACAUCUUCGGAUGGAGAGGAGGCAGGCUUCGGUGGCACGAUAGCGCCAACGUCCUCAACCUCCAAUGCAUCCCACCACAUGAUGAUGCCUGAAGAGCCUUGGUUUUUUG [C40G G63A] | -1.91
GACCAAUCUGCCCUCAGAGCUCGAGAACAUCUUCGGAUGGAGAGGAGGCAGGCUUCGGUGUCGCGAUAGCGCCAACGUCCUCAACCUCCAAUGCAUCCCACCACAUGAUGAUGCCUGAAGAGCCUUGGUUUUUUG [C40G G61U] | -2.33
GACCAAUCUGCCCUCAGAGCUCGAGAACAUCUUCGGAUGGAGAGGAGGCAGGCUUCGGUGCCGCGAUAGCGCCAACGUCCUCAACCUCCAAUGCAUCCCACCACAUGAUGAUGCCUGAAGAGCCUUGGUUUUUUG [C40G G61C] | -2.49
GACCAAUCUGCCCUCAGAGCUCGAGAACAUCUUCGGAUGUAGAGGGGGCAGGCUUCGGUGUCGCGAUAGCGCCAACGUCCUCAACCUCCAAUGCAUCCCACCACAUGAUAAUGCCAGAAGAGCCUUGGUUUUUUG [C40U A46G G61U G110A U116A] | -3.75
